From the DeepSol protein solubility set come the findings set out here.

The nature of this data set: soluble on expression in E. coli; label from the status in PepcDB or PDB records.
For the sequence “MARDGAVYACQSCGAVQTKWSGQCSACQSWNTLVEEVSAKPPGALSATKATRVRGLQFTGLESETAPPPRILTGVDEFDRVCGGGVVPGSALLIGGDPGVGKSTLLLQVCASAAARGVSCAYISGEEAVEQIRGRADRMGLAKANVSLAAETALRDILDGLKRDNFDLVVIDSIQTMWSDAHEAGPGTVTQVRACATELVRLAKKKGVAILLVGHVTKDGQIAGPRVVEHLVDAVLSFEGERGYPFRILRGAKNRFGATDEIGVFEMGDVGLREVKNPSALFLNEGGERAAGAAVFAGIEGSRPVLVEFQALVAPSAYGTPRRAVVGWDSGRLAMVLAVLEARCGLGFGDKDVYLNVAGGLRITEPAADLAAAAALASSALDVALPQDCVVFGELSLSGEVRPVSRMETRLKEAAKLGFGRALGPLAGLPEGGGALPVAGVARLTDAVRRIGDEIWTSLTLEHHHHHH”, the “soluble on expression in E. coli” value is reported as “not soluble”. Consider “MEKMYNVGKIVNTHGLIGEIRVIATTDFPEERFQVGNTVYLFEKNSKKPEKLIIRSHRKHKNFDLLMFEGFTGIHQVERMKEGVLKIKETQLTNLEENEFYFHEIIGCTVVTTDGEELGEITEILTPGANDVWVVKGADKKEKLIPYIADVVKEINIDDQKITIEVMEGLLD”, for which the “soluble on expression in E. coli” value is on record as “soluble”. Take “MPNKNGVGKKSPSTSKSSNNNKRREPEFRYEEKTAVHGGKTKYEEKTVVHGGKTKNVVAKKVPSKASVIVDKKASTTETTVPITVKKSLLSISTAYDRTVTEEKEKEKPKKKEKEKWSGEEASIKFVKSLGSINLKDEYDEIQKLPVQTERCKMWQSHSSRNRHNDSKCYDHNRIIVQMCKDDYINGSKINVPHFTPSIYLVQLPKMDSVDAVEEFWRVVFHEQCQTVHIIARPEELTNPAIDKLFCQESGAWLYANGFFVNTRKVEKKENAKADMFVVELLPEGCSNAVMCSVYLHTYWKPLFGPDRFGAQIRAAHQIAKNENGNSPTVIASVNGSGRNAALLTLAVVEDQLTRGKEPKISEIVRTIREQRPQSVDSYIQYVSLYMATNWLIKTKLPSGHEVVSKIKKFNEKATRSLPGSMMKTPTEEL”: the “soluble on expression in E. coli” value was “not soluble”. On to “ADTRIGVTIYKYDDNFMSVVRKAIEKDGKSAPDVQLLMNDSQNDQSKQNDQIDVLLAKGVKALAINLVDPAAAGTVIEKARGQNVPVVFFNKEPSRKALDSYDKAYYVGTDSKESGVIQGDLIAKHWQANQGWDLNKDGKIQYVLLKGEPGHPDAEARTTYVVKELNDKGIQTEQLALDTAMWDTAQAKDKMDAWLSGPNANKIEVVIANNDAMAMGAVEALKAHNKSSIPVFGVDALPEALALVKSGAMAGTVLNDANNQAKATFDLAKNLAEGKGAADGTSWKIENKIVRVPYVGVDKDNLSEFTQK”, for which the “soluble on expression in E. coli” value is “soluble”.

Regarding “MTLTASSSSRAVTNSPVVVALDYHNRDDALAFVDKIDPRDCRLKVGKEMFTLFGPQFVRELQQRGFDIFLDLKFHDIPNTAAHAVAAAADLGVWMVNVHASGGARMMTAAREALVPFGKDAPLLIAVTVLTSMEASDLVDLGMTLSPADYAERLAALTQKCGLDGVVCSAQEAVRFKQVFGQEFKLVTPGIRPQGSEAGDQRRIMTPEQALSAGVDYMVIGRPVTQSVDPAQTLKAINASLQRSA”, the “soluble on expression in E. coli” value is “soluble”. Next, “GAMVETKCPNLDIVTSSGEFHCSGCVEHMPEFSYMYWLAKDMKSDEDTKFIEHLGDGINEDETVRTTDGGITTLRKVLHVTDTNKFAHYRFTCVLTTLDGVSKKNIWLK”: “soluble”; “MDYILGRYVKIARYGSGGLVGGGGKEQYVENLVLWENIIKTAYCFITPSSYTAALETANIPEKDFSNCFRFLKENFFIIPGEYNNSTENNRYSRNFLHYQSYGANPVLVQDKLKNAKVVILGCGGIGNHVSVILATSGIGEIILIDNDQIENTNLTRQVLFSEDDVGKNKTEVIKRELLKRNSEISVSEIALNINDYTDLHKVPEADIWVVSADHPFNLINWVNKYCVRANQPYINAGYVNDIAVFGPLYVPGKTGCYECQKVVADLYGSEKENIDHKIKLINSRFKPATFAPVNNVAAALCAADVIKFIGKYSEPLSLNKRIGIWSDEIKIHSQNMGRSPVCSVCGNRMLEHHHHHH”: “soluble”. For the sequence “MVQALPSNIGIQQVTLKVADLDKMVNFYTKTIGLKLLKQGEGRAWLAPQGTNDAILVLKELTAGEENQGTTGLYHIAFLLPTRKDLGNMLLWLLQENVQIGAADHGYSEALYLSDPENNGIEIYWDKPEEVWDIRPNGEIIGVTEELDGDSLAAEADGHWLGISEGSKIGHIHLKVADLDATETFYKNLGFGLKSNFGQQAKFFAAGQYHHHIGTNTWSGKQLPTIQENQFGLENYTFRLPTAADLEIVQANAEEAKLHFIAKDHLLALEDPSGMIIQFTY”, the “soluble on expression in E. coli” value is “not soluble”. The result for “MGSDKIHHHHHHMDGRGLKAYATPIRKFWVVLLQQRRMAMAENEKYLDWAREVLHTEAEGLREIAAELDENFVLAADALLHCKGRVVITGMGKSGHIGRKMAATMASTGTPAFFVHPAEAAHGDLGMIVDNDVVAAISNSGESDEITAIIPALKRKDITLVCITARPDSTMARHADIHITASVSQEACPLGLAPTTSTTAVMALGDALAVVLLRARAFTPDDFALIHPAGSLGKRLLLRVADIMHKGGGLPAVRLGTPLKGAIVSMSEKGLGMLAVTDGQGCLKGVFTDGDLRRLFQECDNFTGLSIDEVMHTHPKTISAERLATEALKVMQANHVNGLLVTDADGVLTGALNMHDLLAARIV” reads “not soluble”. For the sequence “MTKPVLQDGETVVCQGTHAAIASELQAIAPEVAQSLAEFFAVLADPNRLRLLSLLARSELCVGDLAQAIGVSESAVSHQLRSLRNLRLVSYRKQGRHVYYQLQDHHIVALYQNALDHLQECR”, the “soluble on expression in E. coli” value was “soluble”.

Regarding “MRPGGYPKGVQARAWVEVDLAALWANYRLLAGRAGGEVIPVLKADAYGHGALPLARFLEGKGVGRFAVATLEEGRRLREGGIKGEVLLLGSLHPLEAEEALRLGLVPTLSNLEAAEALSQRARALGLVPRAHLKVDTGMNRVGFPSEEAVSALRAVEALGVRVEGVYTHLATAGEDAAFVETQRRRFQEVRRALGEGYFYHLENSLGLLRHGATAGVRVGLALYGLVPGFGLRPILRILARPTLVKRLKAGDRVGYGGVYVARGGEWLATLPVGYADGLPWGAVRFVKGPDGRLLEVAGRISMDQTTVLLPGPVGLEAVFEVLSADFGPTGLLAWAEARGTLPYEVAVHLSRRLPRRYLE”, the “soluble on expression in E. coli” value is “soluble”. The result for “MPASVTHVIFDFDGLLVDTESAYTEANMELLRKYGHVFTMDLKRRQMGKRHDESIRWLINELKIGDLVTPEEYSRQYDELLIEMFKRSPAMPGAEKLVRHLLHTGVPVALCTGSCSRTFPTKLDNHKDWVNMIKLQVLSGDDPEVKHGKPHPDPFLVTMKRFPQVPESADKVLVFEDSYNGVLSALDAGMQCVMVPERSIFDPDSDPEFKNRVTVILNSLEQFKPEDFGLPPY” reads “not soluble”. Turning to “MAHHHHHHMSLLRMCYRSIDITVKSRHARTFLKKRLMEQWAAKCKEPNPEKQRFYMDLAGSFLQALHTERNPKPGKVVNFQLSRQVAYEQKLADREKSAGARRVRRMSKEVKTQDH”, the “soluble on expression in E. coli” value was “not soluble”.

For “GAMGSPKEHIDLYQQIKWNGWGDTRKFLHQLKPSGTIAMTTPEVSSVPLPSLRGFIKKELTLPGEEDKPFVLDETPALQIENIHVDPPKQYPEFVRELKAFFLPDQLKDDKLARITHTFGKSLRDLIRVRIGQVKNAPDLIVLPHSHEEVERLVQLAHKYNVVIIPMGGGSNIVGAIEPVSNERFTVSIDMRRMNKVLWVDRREMTACIQVGIMGPELEKQLHKQGVSLGHDPDSFEFSTLGGWLATCSSGHQSDKYGDIEDMAVSFRTVTPTGTLELRNGARSGAGINYKHIILGSEGTLGIITEAVMKVHAVPQAVEYYGFLFPTFAHAVSALQQIRSSEVIPTMIRVYDPEETQLSFAWKPSKGAVSEFTSAMVKKYLHYIRSFDFKNVCLSIIGFEGPKKVVDFHRTSVFDILSKNAAFGLGSAPGKTWAEKRYDLPYIRDFLLDHNMWVDVAETTVSYANLQTLWKDAKQTFVKHFKDQGIPAWICAHISHTYTNGVCLYFIFASKQNENKDMAQYIEAKKLMTDIIFKYGGSLSHHHGVGYEHVPWMTRYATRGWINVYRSLKETIDPKDICNPRKLI”, the “soluble on expression in E. coli” value is recorded as “soluble”. For the sequence “MASGILVNVKEEVTCPICLELLTQPLSLDCGHSFCQACLTANHKKSMLDKGESSCPVCRISYQPENIRPNRHVANIVEKLREVKLSPEGQKVDHCARHGEKLLLFCQEDGKVICWLCERSQEHRGHHTFLTEEVAREYQVKLQAALEMLRQKQQEAEELEADIREEKASWKTQIQYDKTNVLADFEQLRDILDWEESNELQNLEKEEEDILKSLTNSETEMVQQTQSLRELISDLEHRLQGSVMELLQGVDGVIKRTENVTLKKPETFPKNQRRVFRAPDLKGMLEVFRELTDVRRYWGKEKSHYHKPPCGLSLLLSLSFRILCSLLGSCFKIYDSPSKTHITYPSL”, the “soluble on expression in E. coli” value is recorded as “soluble”. On to “MLWGRREFVMREEDTVCVGSDGLQYCKVCGEAKEAFFPEGGFMGMKKHSRQCACDRKAYEEEQKYFKDKEHRELVSRNTSICFDESRMEEWTFENADMSDAVMHKAKSYVDNWEEMKRNHIGCLFWGPVGTGKSFIAGCIANELLKQEVTVKMTNFNTIIDDIFPLADKTEYINALASYQLLIIDDLGVERNSEYALGIIFSVIDRRIRSGRPLIITTNLPLNEIKSETMLDKRRIYDRILEMCTPMYVGGASKREAIASMKMEKAKTLLNTNKGEE”, for which the “soluble on expression in E. coli” value is recorded as “not soluble”. As to “SLPVSYIENQSAVINQGDFLTQLSNIKNYSSKLSTNFYDNYEKITNWVLSGANINELTQFNIQPQIMRGFDGFQNVLMTGYYSPILYARHSPQGQFKNPIYRMPVKKRLSRAQIYAGALAGKRLELAYSDSMLENFLLGVQGSGYVDFGDGNLNYFAYAGQNGYPYTAIGRLLVEDGEIPKEKMSIQAIREWGNRNPSRIQSLLERNEAYVFFKNDPSGKVKGSAGVPLVAMASVASDRNIIPSGSVLLVEVPDIDNNGNWLGTHKLHLMVALDVGGAVKGHHFDLYRGIGARAGHIAGLSKHYGRVWVLR”, the “soluble on expression in E. coli” value is on record as “soluble”. On to “MNNKLKTQAVEQLFQAILSLKDLDEAYDFFEDVCTINEILSLSQRFEVAKMLREHRTYLDIAEKTGASTATISRVNRSLNYGNDGYDRVFERLGMLEKESEDNK”, for which the “soluble on expression in E. coli” value was “soluble”. The result for “MIRNKAFVVRLYPNAAQTELINRTLGSARFVYNHFLARRIAAYKESGKGLTYGQTSSELTLLKQAEETSWLSEVDKFALQNSLKNLETAYKNFFRTVKQSGKKVGFPRFRKKRTGESYRTQFTNNNIQIGEGRLKLPKLGWVKTKGQQDIQGKILNVTVRRIHEGHYEASVLCEVEIPYLPAAPKFAAGVDVGIKDFAIVTDGVRFKHEQNPKYYRSTLKRLRKAQQTLSRRKKGSARYGKAKTKLARIHKRIVNKRQDFLHKLTTSLVREYEIIGTEHLKPDNMRKNRRLALSISDAGWGEFIRQLEYKAAWYGRLVSKVSPYFPSSQLCHDCGFKNPEVKNLAVRTWTCPNCGETHDRDENAALNIRREALVAAGISDTLNAHGGYVRPASAGNGLRSENHATLVVLEHHHHHH” reads “soluble”.
